Measurements published in publication PMC10847046.

Molecular target: M66/StcE (Yersinia entomophaga (endogenous in the ΔLC derivative of MH96))
Test: cryo-EM structure

Substance: M66/StcE (enzyme)
- stoichiometry N: 4
